Test results: paper doi:10.1101/444885 (bioRxiv, 2018)
Read-outs that look alike come from different tables or passages of the source.

B1: DnaA domain I (residues 1-81) (domain or fragment)
chain: MENILDLWNQALAQIEKKLSKPSFETWMKSTKAHSLQGDTLTITAPNEFARDWLESRYLHLIADTIYELTGEELSIKFVIP
B4: DnaA(N191C/A198C) (natural protein)
chain: MENILDLWNQALAQIEKKLSKPSFETWMKSTKAHSLQGDTLTITAPNEFARDWLESRYLHLIADTIYELTGEELSIKFVIPQNQDVEDFMPKPQVKKAVKEDTSDFPQNMLNPKYTFDTFVIGSGNRFAHAASLAVAEAPAKAYNPLFIYGGVGLGKTHLMHAIGHYVIDHNPSAKVVYLSSEKFTNEFICSIRDNKCVDFRNRYRNVDVLLIDDIQFLAGKEQTQEEFFHTFNTLHEESKQIVISSDRPPKEIPTLEDRLRSRFEWGLITDITPPDLETRIAILRKKAKAEGLDIPNEVMLYIANQIDSNIRELEGALIRVVAYSSLINKDINADLAAEALKDIIPSSKPKVITIKEIQRVVGQQFNIKLEDFKAKKRTKSVAFPRQIAMYLSREMTDSSLPKIGEEFGGRDHTTVIHAHEKISKLLADDEQLQQHVKEIKEQLK

What was measured:
[1] = target: T1, DnaD DDBH2 domain (residues 129-232) (Bacillus subtilis, UniProt P39787 129-232); assay: NMR titration
T1 sequence: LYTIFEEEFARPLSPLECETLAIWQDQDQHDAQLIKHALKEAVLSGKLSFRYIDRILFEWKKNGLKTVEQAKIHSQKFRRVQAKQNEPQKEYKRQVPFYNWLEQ

[2] = target: T1, DnaD DDBH2 domain (residues 129-232); assay: NMR titration; remark: listed apart in the source
[3] = target: the molecule itself; assay: FRET or BRET
[4] = target: the molecule itself; assay: cross-linking
[5] = target: B1; assay: NMR titration
[6] = target: B4; assay: loss and rescue of BMOE cross-linking of DnaA-DNA filaments

B1 gave a Kd [1] of 665 ± 251 µM and a Kd [2] of 768 ± 168 µM.

B2: DnaA N191C, labelled with Cy3B or Atto647N (natural protein)
chain: MENILDLWNQALAQIEKKLSKPSFETWMKSTKAHSLQGDTLTITAPNEFARDWLESRYLHLIADTIYELTGEELSIKFVIPQNQDVEDFMPKPQVKKAVKEDTSDFPQNMLNPKYTFDTFVIGSGNRFAHAASLAVAEAPAKAYNPLFIYGGVGLGKTHLMHAIGHYVIDHNPSAKVVYLSSEKFTNEFICSIRDNKAVDFRNRYRNVDVLLIDDIQFLAGKEQTQEEFFHTFNTLHEESKQIVISSDRPPKEIPTLEDRLRSRFEWGLITDITPPDLETRIAILRKKAKAEGLDIPNEVMLYIANQIDSNIRELEGALIRVVAYSSLINKDINADLAAEALKDIIPSSKPKVITIKEIQRVVGQQFNIKLEDFKAKKRTKSVAFPRQIAMYLSREMTDSSLPKIGEEFGGRDHTTVIHAHEKISKLLADDEQLQQHVKEIKEQLK
B2: binds [3].

B3: DnaA A198C, labelled with Cy3B or Atto647N (natural protein)
chain: MENILDLWNQALAQIEKKLSKPSFETWMKSTKAHSLQGDTLTITAPNEFARDWLESRYLHLIADTIYELTGEELSIKFVIPQNQDVEDFMPKPQVKKAVKEDTSDFPQNMLNPKYTFDTFVIGSGNRFAHAASLAVAEAPAKAYNPLFIYGGVGLGKTHLMHAIGHYVIDHNPSAKVVYLSSEKFTNEFINSIRDNKCVDFRNRYRNVDVLLIDDIQFLAGKEQTQEEFFHTFNTLHEESKQIVISSDRPPKEIPTLEDRLRSRFEWGLITDITPPDLETRIAILRKKAKAEGLDIPNEVMLYIANQIDSNIRELEGALIRVVAYSSLINKDINADLAAEALKDIIPSSKPKVITIKEIQRVVGQQFNIKLEDFKAKKRTKSVAFPRQIAMYLSREMTDSSLPKIGEEFGGRDHTTVIHAHEKISKLLADDEQLQQHVKEIKEQLK
modifications: Cy3B-maleimide or Atto647N-maleimide on the cysteine at 198
B3: binds [3].

B4: binds [4].

B5: truncated DnaD DDBH2 domain (residues 129-196) (domain or fragment)
chain: LYTIFEEEFARPLSPLECETLAIWQDQDQHDAQLIKHALKEAVLSGKLSFRYIDRILFEWKKNGLKTV
B5: binds [5].

B6: DnaD (full length) (natural protein)
chain: MKKQQFIDMQEQGTSTIPNLLLTHYKQLGLNETELILLLKIKMHLEKGSYFPTPNQLQEGMSISVEECTNRLRMFIQKGFLFIEECEDQNGIKFEKYSLQPLWGKLYEYIQLAQNQTQERKAEGEQKSLYTIFEEEFARPLSPLECETLAIWQDQDQHDAQLIKHALKEAVLSGKLSFRYIDRILFEWKKNGLKTVEQAKIHSQKFRRVQAKQNEPQKEYKRQVPFYNWLEQ
B6: binds [6].
